Results as given in the supplement of paper PMC9170038.

Tested on: MS2 coat protein
Assay: apparent KD of MS2 coat protein; designed switch direction (-1 OFF switch, 1 ON switch): -1; higher = weaker reporter binding
Method in brief: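 Stalled E. coli RNA polymerase transcribed designed RNA switches on Illumina chips, which were then titrated with SNAP-549-labelled MS2 coat protein, doubling from 0.7 or 1.5 nM to 3 µM. Steps lasted from 0.8–1.5 h at the lowest concentration to 10–20 min at the highest. The apparent KD is each design's median over clusters of curve-fitted normalised fluorescence.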

[1] = input ligand: microRNA oligo, concentration not stated
[2] = Eterna round: R95, input ligand: FMN 200 uM
[3] = Eterna round: R95, input ligand: microRNA oligo, concentration not stated
[4] = Eterna round: R95, input ligand: none

UUUUUAUAUGAAGGAUAUACUUAACAUGAGGAUCACCCAUGUGGUGUUGUGAGUGAGUGAGUUUAGUAGAAGGUCAGUUCUUUU [JMF's solution 79] (Eterna round: R96, puzzle: Exclusion NG 2)
apparent KD of MS2 coat protein (input ligand: FMN 200 uM): 414 nM
apparent KD of MS2 coat protein [1]: 497 nM
apparent KD of MS2 coat protein (input ligand: none): 611 nM

UAGCAGCGAGGAUAUACAGACGGGUCCAGUACGUGUCUUGGACUUGAGGAUCACCCAAGUAGAAGGCGCCACAG [salish99_ex2_r4_604] (Eterna round: R97, puzzle: Exclusion 2)
apparent KD of MS2 coat protein (input ligand: FMN 200 uM): 41.3 nM
apparent KD of MS2 coat protein (input ligand: none): 40 nM

ACUCGACAUGAGGAUCACCCAUGUGAGGAUAUGGCCUGUAUGGCGUGAGCUGGAUCAAUCAGAAGGCGCGUGGG [salish99_ex1_r4_052] (Eterna round: R97, puzzle: Exclusion 1)
apparent KD of MS2 coat protein (input ligand: FMN 200 uM): 80.4 nM
apparent KD of MS2 coat protein (input ligand: none): 56 nM

AGCAGACGAGGAUAUAGAUUUGAUAACAUGAGGAUCACCCAUGUGAUCGAUAGAUCAGAUUUAGAAGGCGUCUGCU [E5/8-A1] (Eterna round: R97, puzzle: Exclusion 5)
apparent KD of MS2 coat protein (input ligand: FMN 200 uM): 412 nM
apparent KD of MS2 coat protein (input ligand: none): 525 nM

AUUACGCAGUAGGAUAUGGGCGGUGAGCACCGUCCAGAAGGACUGACAUGAGGAUCACCCAUGUCCUCCCACAC [Eternabot (L2) Solution 42] (Eterna round: R97, puzzle: Exclusion 6)
apparent KD of MS2 coat protein (input ligand: FMN 200 uM): 497 nM
apparent KD of MS2 coat protein (input ligand: none): 55.8 nM

GCAAGAAUAGGAUAUACAACAUGCCAGCUUCUUUACAACGCACAUGAGGAUCACCCAUGUAGAAGGGUUCUCUA [Exclusion-2-#13] (Eterna round: R97, puzzle: Exclusion 2)
apparent KD of MS2 coat protein (input ligand: FMN 200 uM): 209 nM
apparent KD of MS2 coat protein (input ligand: none): 261 nM

AUGAAAGUAGGAUAUCGACUGAUUGACAUGAGGAUCACCCAUGUGGUUCUGUGCGGUGUUCGAGAAGGGCUAAGAU [Mageer] (puzzle: Exclusion 5)
apparent KD of MS2 coat protein [2]: 23.1 nM
apparent KD of MS2 coat protein [3]: 15.7 nM
apparent KD of MS2 coat protein [4]: 20.9 nM

AUAAUGUCAGGAUAUCAGUCGACUAGCCUCGGCUAGUCGACUGAGAAGGGACAUGAGGAUCACCCAUGUGUUUC [E4/14-A2] (Eterna round: R97, puzzle: Exclusion 4)
apparent KD of MS2 coat protein (input ligand: FMN 200 uM): 811 nM
apparent KD of MS2 coat protein (input ligand: none): 569 nM

UUGGCAGGUUUUUUGCUCGACAUGAGGAUCACCCAUGUUGCGUGGGUUGUGUGUGUGCGGUGUAUAUAUAUGGUCCU [-24.8, -48.1 kcal, A 14%] (Eterna round: R97, puzzle: Sensor, turn-off variant 1)
apparent KD of MS2 coat protein (input ligand: FMN 200 uM): 480 nM
apparent KD of MS2 coat protein (input ligand: none): 644 nM

AGUGCUGGCGCGUCGGUGUUGGUACAAUAAGCUUGUGAAACAUGAGGAUCACCCAUGUCCUCAUAAGCUCGUCUUAU [salish99_TOv2_r2_084] (puzzle: Sensor v3, turn-off variant 2)
apparent KD of MS2 coat protein [2]: 17.6 nM
apparent KD of MS2 coat protein [3]: 553 nM
apparent KD of MS2 coat protein [4]: 16.9 nM

AAUAACGAGCCGGUCCUCCACAUGAGGAUCACCCAUGUGUUCGUCUUGUAAAGUACUAUCACGAAAGUGAUAGUACA [mod jandersonlee2] (Eterna round: R97, puzzle: Sensor, turn-off variant 1)
apparent KD of MS2 coat protein (input ligand: FMN 200 uM): 746 nM
apparent KD of MS2 coat protein (input ligand: none): 858 nM

UUUAAUUUUUUUUUUUUACAAGCUUUUUGCUCGUCUUAUACAUGAGGAUCACCCAUGUAAGUGGGAGGUAAAUUAUC [JMF 76] (puzzle: Sensor v3, turn-off variant 2)
apparent KD of MS2 coat protein [2]: 54.3 nM
apparent KD of MS2 coat protein [3]: 201 nM
apparent KD of MS2 coat protein [4]: 102 nM

GCGCACCUACCAAAAGGUAGGCUAACAUGAGGAUCACCCAUGUAGGAUAUCGAUUGCUUUGCAGUCGAGAAGGACAUGAUGCGC [JL ENG3 3.80 Mod 11] (Eterna round: R96, puzzle: Exclusion NG 3)
apparent KD of MS2 coat protein (input ligand: FMN 200 uM): 73.2 nM
apparent KD of MS2 coat protein [1]: 21.4 nM
apparent KD of MS2 coat protein (input ligand: none): 30 nM

UUAUUAUAUGUAGGAUAUGCAUAUUGUUAUUAUGCAGAAGGACAUGAGGAUCACCCAUGUAUAUUAUUAUUAUAUAUUAUAUAU [Title] (Eterna round: R96, puzzle: Exclusion NG 1)
apparent KD of MS2 coat protein [1]: 23.3 nM

UUUAAUUUUUUUUUUUUACAAGCUUUUUGCUCGUCUUAUACAUGAGGAUCACCCAUGUAGGUGAAGGGUAAAUUAUC [JMF 81] (puzzle: Sensor v3, turn-off variant 2)
apparent KD of MS2 coat protein [2]: 17.9 nM
apparent KD of MS2 coat protein [3]: 77.7 nM
apparent KD of MS2 coat protein [4]: 15.8 nM

GUACUGAAGCAUAGCUUUAGUCGUACAUGAGGAUCACCCAUGUAGGAUAUGGUAGGCUUUGCUUACUAGAAGGAUAGAGUGAUC [Mat - Exclusion NG 3 - Mod of JL - D71] (Eterna round: R96, puzzle: Exclusion NG 3)
apparent KD of MS2 coat protein (input ligand: FMN 200 uM): 157 nM
apparent KD of MS2 coat protein [1]: 86.8 nM
apparent KD of MS2 coat protein (input ligand: none): 109 nM

CCCAGUUAGGAAGGAUAUUGUACAUGAGGAUCACCCAUGUAAUAAAUGAGGAUCACGGAUGUAGACAAGAAGGUCCGGAUAGGC [Ostracism 8 - Jieux - Exclusion NG 2] (Eterna round: R96, puzzle: Exclusion NG 2)
apparent KD of MS2 coat protein (input ligand: FMN 200 uM): 104 nM
apparent KD of MS2 coat protein [1]: 41.5 nM
apparent KD of MS2 coat protein (input ligand: none): 55.5 nM

AUAAUGUCAGGAUAUCAGUCGUACAGCUUCGGCUGUACGACUGAGAAGGGACAUGAGGAUCACCCAUGUGGUUA [E4/7-A1] (Eterna round: R97, puzzle: Exclusion 4)
apparent KD of MS2 coat protein (input ligand: FMN 200 uM): 36.4 nM
apparent KD of MS2 coat protein (input ligand: none): 228 nM

AAAUACAAGUAAAGAUCCUACAUGAGGAUCACCCAUGUGCUCGUUUUAUAAAGUACUAUCACGAAAGUGAUAGUACA [Sensor 3, v1 - 23] (puzzle: Sensor v3, turn-off variant 1)
apparent KD of MS2 coat protein [2]: 900 nM
apparent KD of MS2 coat protein [3]: 4.81 nM
apparent KD of MS2 coat protein [4]: 435 nM

CCAUCGAGUGUGAGGAUAUGCUGUUCCUUGGAGCAGCAGAAGGCACAUGAGGAUCACCCAUGUGGAUACGGUGG [Mat - Exclusion 4 - JL Mod - D80] (puzzle: Brourd's mod of Exclusion 4)
apparent KD of MS2 coat protein [3]: 33.4 nM

CUGUUACAUGAGGAUCACCCAUGUGAGGAUAUGGUUCGGUACUGUCCUGUCGCGUACUCCAGAAGGCACGUGUU [1st #36] (Eterna round: R97, puzzle: Exclusion 1)
apparent KD of MS2 coat protein (input ligand: FMN 200 uM): 46.5 nM
apparent KD of MS2 coat protein (input ligand: none): 36.5 nM

GUCUCGUCAGGAUAUGACGCUACAUUUUGUUUUUAGAAGAGUCAGAAGGGACAUGAGGAUCACCCAUGUGAUUC [Ex4 - 3 - 1] (puzzle: Exclusion 4)
apparent KD of MS2 coat protein [3]: 257 nM

GAGUGAAGUGCAGGAUAUCUAGAAGGAAGAAGGAGGAAACAUGAGGAUCACCCAUGUAAUCCAUAAGAGAAGGGCGGAGAGGAG [An ugly monster] (Eterna round: R96, puzzle: Exclusion NG 2)
apparent KD of MS2 coat protein (input ligand: FMN 200 uM): 16.3 nM
apparent KD of MS2 coat protein [1]: 14.3 nM
apparent KD of MS2 coat protein (input ligand: none): 18.3 nM

AGAAGACAUGAGGAUCACCCAUGUAAGGAUAUCGAAGGUAUGAGAGGAAAGAGGUUAACGAGAAGGUACAGGUG [JR_Exclu1_Sub098] (puzzle: Exclusion 1)
apparent KD of MS2 coat protein [2]: 85.9 nM
apparent KD of MS2 coat protein [3]: 74.1 nM
apparent KD of MS2 coat protein [4]: 130 nM

UAAUAGUGAGGAUAUACAGAAUCUGGGUCCCGCGUGUUGAGACAUGAGGAUCACCCAUGUAGAAGGCACAAAAU [Tetiage] (puzzle: Exclusion 2)
apparent KD of MS2 coat protein [3]: 112 nM

UUCCUCUCUUCUCCGUCUCACAUGAGGAUCACCCAUGUAACAUAGGAUAUGCUUGGUAUUUAAAUGCAGAAGGAUGUUAGUAUU [JR_ExcNG3_Sub081] (Eterna round: R96, puzzle: Exclusion NG 3)
apparent KD of MS2 coat protein (input ligand: FMN 200 uM): 76.6 nM
apparent KD of MS2 coat protein [1]: 21.1 nM
apparent KD of MS2 coat protein (input ligand: none): 29.5 nM

CUAGACGGAGGAUAUACGAGAUCGAAAGAUCGGCGAUCCCUACAUGAGGAUCACCCAUGUAGAAGGCUGUUUAG [Mod 19 - Jieux - Exclusion 2] (Eterna round: R97, puzzle: Exclusion 2)
apparent KD of MS2 coat protein (input ligand: FMN 200 uM): 69.9 nM
apparent KD of MS2 coat protein (input ligand: none): 16.2 nM

AAUAGUUGAGUAGGAUAUGCAUCGACCGGCCGAGCAGAAGGACUCGUGAACUUGAGGAUCACCCAAGUGUCCUCGUUUGCUUGA [Mutated MS2 EX1.16] (Eterna round: R96, puzzle: Exclusion NG 1)
apparent KD of MS2 coat protein (input ligand: FMN 200 uM): 139 nM
apparent KD of MS2 coat protein [1]: 125 nM
apparent KD of MS2 coat protein (input ligand: none): 134 nM

UUUUUAUAUGAAGGAUAUACUUAACAUGAGGAUCACCCAUGUGGUGUUGUGAGUGAGUGAGUUUAGUAGAAGGUCAAUGAUUUC [JMF's solution 64] (Eterna round: R96, puzzle: Exclusion NG 2)
apparent KD of MS2 coat protein (input ligand: FMN 200 uM): 764 nM
apparent KD of MS2 coat protein [1]: 382 nM
apparent KD of MS2 coat protein (input ligand: none): 439 nM

GCCAUGUCAGGAUAUGCUUCAAAGCACGUACAGAGCUUGAAGUAGAAGGGACAUGAGGAUCACCCAUGUGCCUA [Eternabot (L1) Solution 80] (Eterna round: R97, puzzle: Exclusion 4)
apparent KD of MS2 coat protein (input ligand: FMN 200 uM): 40.2 nM
apparent KD of MS2 coat protein (input ligand: none): 20 nM
